Source: the RNAGym collection of RNA variant scans (doi:10.7554/elife.90254)

B1: OR4K15 (parent)
chain: GUUAACGGUCAUAGGCCAUGGAAACUAGGAGCACCAUUUCGCUGCCAGUGAAGAAAUGAACAAAGAAAAUCUGGGCCAGGCAGGCAUCAAAAGAAAUAGUCUUGCGCUCAACCAGAAAGUCUGUAAUCAUUUUAAGGGUA

Variants of: B1
Experiment: self-cleavage, relative activity (ratio to wild type); higher = more cleavage; in vitro, sequencing; the parent is a self-cleaving ribozyme
For GUUAACGGUCAUAGGCCAUGGAAACUGGGAGCACCAUUUCGCUGCCAGUGAAGAAAUGAACAAAGAAAACCUGGGCCAGGCAGGCAUCAAAAGAAAUAGUCUUGCGCUCAACCAGAAAGUCUGUAAUCAUUUUAAGGGUA [A27G U70C], the self-cleavage was 0.56. With GUUAACGGUCAUAGGCCAUGGAAACUGGGAGCACCAUUUCGCUGCCAGUGAAGAAAUGAACAAAGAAAAUCUGGGCCAGGCAGGCAUCAAAAGAAAUAGUCUUGCGCUCAACCAGAAAGUCUUUAAUCAUUUUAAGGGUA [A27G G123U] the self-cleavage was 1.67. Variant GUUAACGGUCAUAGGCCAUGGAAACUGGGAGCACCAUUUCGCUGCCAGUGAAGAAAUGAACAAAGAAAAUCUGGGCCAGGCAGGCAUCAAAAGAAAAAGUCUUGCGCUCAACCAGAAAGUCUGUAAUCAUUUUAAGGGUA [A27G U97A] has a self-cleavage of 1.24. GUUAACGGUCAUAGGCCAUGGAAACUUGGAGCACCAUUUCGCUGCCAGUGAAGAAAUGAACAAAGAAAAUCUGGGCCAGGCAGGCAUCAAAAGAAAUAGUCUUGCGCUCAACCAAAAAGUCUGUAAUCAUUUUAAGGGUA [A27U G115A] gave a self-cleavage of 0.07. Work on GUUAACGGUCAUAGGCCAUGGAAACUUGGAGCACCAUUUCGCUGCCAGUGAAGAAAUGAACAAAGAAAAUCUGGGCCAGGCAGGCAUCAAAAGAAAUAGUCUUGCGCUCAACCAGAAAGUCUGUAAUCAUUUUGAGGGUA [A27U A134G] yielded a self-cleavage of 1.3. Work on GUUAACGGUCAUAGGCCAUGGAAACUGGGAGCACCAUUUCGCUGCCAGUGAAGAAAUGAACAAAGAAAAUCUGGGCCAGGCAGGCAUCAAAAGAAAUAGUCUUGCGCUCAACCAGAAAGUCUGCAAUCAUUUUAAGGGUA [A27G U124C] yielded a self-cleavage of 0.9. GUUAACGGUCAUAGGCCAUGGAAACUUGGAGCACCAUUUCGCUGCCAGUGAAGAAAUGAACAAAGAAAAUCUGGGCCAGGCAGGCAUCAGAAGAAAUAGUCUUGCGCUCAACCAGAAAGUCUGUAAUCAUUUUAAGGGUA [A27U A90G] gave a self-cleavage of 0.74. GUUAACGGUCAUAGGCCAUGGAAACUUGGAGCACCAUUUCGCUGCCAGUGAAGAAAUGAAUAAAGAAAAUCUGGGCCAGGCAGGCAUCAAAAGAAAUAGUCUUGCGCUCAACCAGAAAGUCUGUAAUCAUUUUAAGGGUA [A27U C61U] gave a self-cleavage of 0.58. GUUAACGGUCAUAGGCCAUGGAAACUUGGAGCACCAUUUCGCUUCCAGUGAAGAAAUGAACAAAGAAAAUCUGGGCCAGGCAGGCAUCAAAAGAAAUAGUCUUGCGCUCAACCAGAAAGUCUGUAAUCAUUUUAAGGGUA [A27U G44U] gave a self-cleavage of 2.13. With GUUAACGGUCAUAGGCCAUGGAAACUGGGAGCACCAUUUCGCUGCCAGUGAAGAAAUGAACAAAGAAAAUCUGGGCCAGGCAGGCAUCAAAAGAAAUAGUCUUACGCUCAACCAGAAAGUCUGUAAUCAUUUUAAGGGUA [A27G G104A] the self-cleavage was 0.02. In the case of GUUAACGGUCAUAGGCCAUGGAAACUGGGAGCACCAUUUCGCUGCCAGUGAAGAAAUGAACAAAGAAAAUCUGGGCCAGGCAGGCAUCAAAAGAAAUAGUCUUGCGCUCAACCAGAAAGUCUGUAAUCAUGUUAAGGGUA [A27G U131G], the self-cleavage is reported as 1.09. With GUUAACGGUCAUAGGCCAUGGAAACUUGGAGCACCAUUUCGCUGCCAGUGAAGAAGUGAACAAAGAAAAUCUGGGCCAGGCAGGCAUCAAAAGAAAUAGUCUUGCGCUCAACCAGAAAGUCUGUAAUCAUUUUAAGGGUA [A27U A56G] the self-cleavage was 1.21. For GUUAACGGUCAUAGGCCAUGGAAACUGGGAGCACCAUUUCGCUGCCAGUGAAGAAAUGAACAAAGAAAAUCUGGGCCAGGCAGGCAUCAAAAGAAAUAGCCUUGCGCUCAACCAGAAAGUCUGUAAUCAUUUUAAGGGUA [A27G U100C], the self-cleavage was 1.8. Work on GUUAACGGUCAUAGGCCAUGGAAACUGGGAGCACCAUUUCGCUGCCAGUGAAGAAAUGAACAAAGAAAAUCUGGGCCAGGCAGGCAUCAAAAGAAAUAGUCUUGAGCUCAACCAGAAAGUCUGUAAUCAUUUUAAGGGUA [A27G C105A] yielded a self-cleavage of 0.04. With GUUAACGGUCAUAGGCCAUGGAAACUGGGAGCACCAUUUCGCUGCCAGUGAAGAAACGAACAAAGAAAAUCUGGGCCAGGCAGGCAUCAAAAGAAAUAGUCUUGCGCUCAACCAGAAAGUCUGUAAUCAUUUUAAGGGUA [A27G U57C] the self-cleavage was 0.49. Variant GUUAACGGUCAUAGGCCAUGGAAACUGGGAGCACCAUUUCGCUGCCAGUGAAGAAAUGAACAAAGAAAAUAUGGGCCAGGCAGGCAUCAAAAGAAAUAGUCUUGCGCUCAACCAGAAAGUCUGUAAUCAUUUUAAGGGUA [A27G C71A] has a self-cleavage of 0.66. For GUUAACGGUCAUAGGCCAUGGAAACUGGGAGCACCAUUUCGCUGCCAGUGAAGAAAUGAACAAAGAAAAUCUGGGCCAGGCAGGCAUCAAAAGAAAUAGUCUUGCGCCCAACCAGAAAGUCUGUAAUCAUUUUAAGGGUA [A27G U108C], the self-cleavage was 0.02. In the case of GUUAACGGUCAUAGGCCAUGGAAACUUGGAGCACCAUUUCGCUGCCAGUGAAGAAAUGAACGAAGAAAAUCUGGGCCAGGCAGGCAUCAAAAGAAAUAGUCUUGCGCUCAACCAGAAAGUCUGUAAUCAUUUUAAGGGUA [A27U A62G], the self-cleavage is reported as 1.61. Variant GUUAACGGUCAUAGGCCAUGGAAACUGGGAGCACCAUUUCGCUGCCAGUGAAGAAAUGAACAAAGAAAAUCUGGGCCAGGCAGGCAUCAAAAGAAAUAGUCUUGCGCUCAACCAGAAAGUCUGUAAUCAUUUUAAGGGUG [A27G A140G] has a self-cleavage of 1. With GUUAACGGUCAUAGGCCAUGGAAACUGGGAGCACCAUUUCGCUGCCAGUAAAGAAAUGAACAAAGAAAAUCUGGGCCAGGCAGGCAUCAAAAGAAAUAGUCUUGCGCUCAACCAGAAAGUCUGUAAUCAUUUUAAGGGUA [A27G G50A] the self-cleavage was 2.45.
